Test results: article PMC10287707

T1: TIA1 RRM2_3 (human, UniProt P31483-2 93-274)
T1 sequence: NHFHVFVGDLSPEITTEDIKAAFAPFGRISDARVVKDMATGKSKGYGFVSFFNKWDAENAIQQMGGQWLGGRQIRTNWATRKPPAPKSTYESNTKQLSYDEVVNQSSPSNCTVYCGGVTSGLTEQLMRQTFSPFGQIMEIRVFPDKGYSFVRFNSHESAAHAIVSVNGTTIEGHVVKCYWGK

T2: TIA1 RRM2-3 (Homo sapiens, UniProt P31483-2 93-274)
T2 sequence: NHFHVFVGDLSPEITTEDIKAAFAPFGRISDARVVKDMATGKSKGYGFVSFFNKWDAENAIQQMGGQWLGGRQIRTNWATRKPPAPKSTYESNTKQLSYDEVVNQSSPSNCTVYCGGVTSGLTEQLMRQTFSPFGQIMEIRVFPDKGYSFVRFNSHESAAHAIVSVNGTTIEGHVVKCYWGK


Tests used:
TIA1 RRM2_3 [1] = molecular target: T1, TIA1 RRM2_3; assay: EMSA; EMSA: 10 mM sodium phosphate pH 6.5, 50 mM NaCl, 1 mM DTT, 1 U/ul SUPERase-In, room temperature 20 min, native 1.2% agarose; RNA annealed in 10 mM Tris-HCl pH 7.5, 100 mM KCl; details: protein: recombinant, tags: His6-SUMO removed by SUMO protease, label: 5'-Cy3, hairpin
TIA1 RRM2-3 = molecular target: T2, TIA1 RRM2-3; assay: EMSA; 10 mM sodium phosphate pH 6.5, 50 mM NaCl, 1 mM DTT; room temperature, 20 min; 1.2% agarose; protein 0.1-10 uM; RNA annealed in 10 mM Tris pH 7.5, 100 mM KCl; details: tags: His6-SUMO (cleaved; BamHI linker Ser or Gly-Ser may stay); label: 5' Cy3
TIA1 RRM2_3 [2] = molecular target: T1, TIA1 RRM2_3; assay: EMSA; EMSA: 10 mM sodium phosphate pH 6.5, 50 mM NaCl, 1 mM DTT, 1 U/ul SUPERase-In, room temperature 20 min, native 1.2% agarose; RNA annealed in 10 mM Tris-HCl pH 7.5, 100 mM KCl; details: protein: recombinant; tags: His6-SUMO removed by SUMO protease; label: 5'-Cy3; hairpin

Binder | Kd (TIA1 RRM2_3 [1]) [µM] | Kd (TIA1 RRM2-3) [µM] | binding signal (TIA1 RRM2_3 [2]) [kcal/mol ddG vs WT SL3] | other results
UGUUCUUUUUUUGAACUUUAA (structured_RNA) [SL3-HP-U7] | 0.54 ± 0.03 |  |  | 
UGGGCUCUAAACGCCCUUUAA (structured_RNA) [SL3-GC] | 5.65 ± 1.7 |  |  | 
UGUUCUCCAAACGAACUUUAA (structured_RNA) [SL3 U67C] |  | 3.34 ± 1.04 | 0.85 ± 0.21 | 
UGUUCUCUGAACGAACUUUAA (structured_RNA) [SL3 A68G] |  | 0.9 ± 0.11 | 0.09 ± 0.1 | 
UGUUCUCUAAACGAACUAUAA (structured_RNA) [SL3 U77A] |  | 4.66 ± 1.54 | 1.05 ± 0.2 | 
UGUUCUCUAAACGAACGUUAA (structured_RNA) [SL3 U76G] |  | 3.87 ± 1.25 | 0.94 ± 0.21 | 
UGUUCUCUCAACGAACUUUAA (structured_RNA) [SL3 A68C] |  | 0.73 ± 0.08 | -0.04 ± 0.1 | 
UGUUCUCUAAACGAACUCUAA (structured_RNA) [SL3 U77C] |  | 1.28 ± 0.18 | 0.29 ± 0.11 | 
UGUUCUCUAAACGAACU (structured_RNA) [SL3-TL1] |  |  |  | Kd (TIA1 RRM2_3 [1]; 1-nt 3' tail): 2.86 ± 0.55 µM
UGUUCUCUAAACGAACUUAAA (structured_RNA) [SL3 U78A] |  | 7.54 ± 2.12 | 1.34 ± 0.19 | 
UGUUCUCUUAACGAACUUUAA (structured_RNA) [SL3 A68U] | 0.46 ± 0.05 |  |  | 
UGUUCCCCCCCCGAACUUUAA (structured_RNA) [SL3-HP-C7] | 1.95 ± 0.44 |  |  | 
UGUUCUCUACACGAACUUUAA (structured_RNA) [SL3 A69C] | 0.42 ± 0.04 |  |  | 
UGUUCUCUAAACGAACAUUAA (structured_RNA) [SL3 U76A] |  | 6.16 ± 1.85 | 1.22 ± 0.2 | 
UGUUCUCUAAACGAACCCCAA (structured_RNA) [SL3-TL-C3] |  | 2.22 ± 0.36 |  | 
UGUUCUCUAAACGAACGGGAA (structured_RNA) [SL3-TL-G3] |  | 2.77 ± 0.63 |  | 
UGUUCUAAGAACUUUAA (structured_RNA) [SL3-HP3] |  |  |  | Kd (TIA1 RRM2_3 [1]; 3-nt loop): 3.87 ± 1.06 µM
UGUUCUCUAAACGAACUGUAA (structured_RNA) [SL3 U77G] |  | 5.77 ± 1.46 | 1.18 ± 0.17 | 
UGUUCUCUAAACGAACUUCAA (structured_RNA) [SL3 U78C] | 1.34 ± 0.19 | 1.34 ± 0.19 |  | 
